Data on one protein can be found in FireProtDB (doi:10.1021/bi00210a045).

The conditions of the data set: Escherichia coli (strain K12), Thermal, DSC, reversible: yes, whole UniProt chain shown.
Where [1] appears, read: pH 2.5, 25 °C, glycine or acetate 5 mM or 10 mM.
[2] abbreviates: pH 10.3, 25 °C, glycine or CAPS 5 mM or 10 mM.
Setting [3] is: pH 10.3, Sodium glycinate 50 mM.

B1: Chemotaxis protein CheY wild type, P0AE67 (protein)
chain: MADKELKFLVVDDFSTMRRIVRNLLKELGFNNVEEAEDGVDALNKLQAGGYGFVISDWNMPNMDGLELLKTIRADGAMSALPVLMVTAEAKKENIIAAAQAGASGYVVKPFTAATLEEKLNKIFEKLGM
On to B1, for which, under setting [1], the “heat capacity change of unfolding” value amounted to 0.89 kcal/mol/K and the unfolding free energy turned out to be 2.89 kcal/mol. Moreover, for the setting “pH 7, Sodium phosphate 50 mM”, the Tm stood at 58 °C, the “heat capacity change of unfolding” value was 0.69 kcal/mol/K and the “unfolding enthalpy (calorimetric)” value was 83.7 kcal/mol. For the same protein, under setting [2], the “heat capacity change of unfolding” value came to 0.84 kcal/mol/K and the unfolding free energy was 4.9 kcal/mol. Also, under setting [3], the Tm was 55 °C, the “heat capacity change of unfolding” value stood at 0.84 kcal/mol/K and the “unfolding enthalpy (calorimetric)” value came to 67 kcal/mol.
